Data on three molecules can be found in patent publication US20170247475A1 (Boehringer Ingelheim, published 2017).

The target in assay [1] is T1, recombinant human VEGF165 (human, UniProt P15692-4 27-191).
T1 construct: also called hVEGF165; rhVEGF165
The assay is described as follows: SPR Biacore T100, hVEGF165 on chip, Two State Reaction model. On the procedure:
(§1) Samples are injected for 2 min and allowed to dissociate up to 20 min at a flow rate of 45 μI/min. In between sample injections, the chip surface is regenerated with 100 mM HCl. HBS-EP+(Hepes buffer pH7.4+EDTA) is used as running buffer. Binding curves are fitted using a Two State Reaction model by Biacore T100 Evaluation Software v2.0.1.
(§2) ^{(a)}KD = kd1/kₐ₁ * (kd2/(kd2 + kₐ₂)) ^{(b)}Curves are fitted using a Two State Reaction model by Biacore T100 Evaluation Software v2.0.1
Target sequence in this assay (P15692 other isoform, or with tags, fused parts or gaps limits assumed): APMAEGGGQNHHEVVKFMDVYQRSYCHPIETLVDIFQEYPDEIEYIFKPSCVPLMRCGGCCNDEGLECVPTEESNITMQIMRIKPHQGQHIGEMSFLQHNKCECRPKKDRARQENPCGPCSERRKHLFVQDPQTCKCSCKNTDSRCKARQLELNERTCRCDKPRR

In assay [2] the target is T1, recombinant human VEGF165. Nature of the assay: kd1; SPR Biacore T100, hVEGF165 on chip, Two State Reaction model. On the procedure:
as §1, §2
Target sequence in this assay (P15692 other isoform, or with tags, fused parts or gaps limits assumed): as above

The target of assay [3] is T1, recombinant human VEGF165. The assay is described as follows: VEGF/VEGFR2 competition AlphaScreen. On the procedure: (§3) Finally, streptavidin donor beads (20 μg/ml) are added and after 1 hour of incubation in the dark, fluorescence is measured on the Envision microplate reader.
Target sequence in this assay (P15692 other isoform, or with tags, fused parts or gaps limits assumed): as above
In assay [4] the target is T1, recombinant human VEGF165. The assay is described as follows: hVEGF165/hVEGFR2-Fc competition AlphaScreen. On the procedure:
as §3

For assay [5], the target named is T1, recombinant human VEGF165. The assay is described as follows: VEGF165/hVEGFR1-Fc competition AlphaScreen. On the procedure:
as §3
Target sequence in this assay (P15692 other isoform, or with tags, fused parts or gaps limits assumed): as above

For assay [6], the target named is T1, recombinant human VEGF165. Nature of the assay: VEGF/VEGFR1 competition AlphaScreen. On the procedure:
as §3
Target sequence in this assay (P15692 other isoform, or with tags, fused parts or gaps limits assumed): as above

The target in a further assay is T2, human VEGF-C (human, UniProt P49767 103-227).
T2 construct: also called hVEGF-C
T2 sequence (looked up): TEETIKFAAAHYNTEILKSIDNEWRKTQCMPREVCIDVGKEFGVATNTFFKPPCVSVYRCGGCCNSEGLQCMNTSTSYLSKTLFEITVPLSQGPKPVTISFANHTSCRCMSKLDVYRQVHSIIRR
Nature of the assay: binding ELISA on coated VEGFC. On the procedure:
(§4) Binding to VEGFB, VEGFC, VEGFD and PIGF is assessed via a solid phase binding ELISA. In brief, VEGFB, VEGFC, VEGFD and PIGF (R&D Systems, Minneapolis, Minn., USA) are coated overnight at 4° C. at 1 μg/mL in a 96-well MaxiSorp plate (Nunc, Wiesbaden, Germany). Wells are blocked with a casein solution (1% in PBS). […] As positive controls serial dilutions of the appropriate receptors are taken along and detected with horseradish peroxidase (HRP)-conjugated goat anti-human IgG, Fc specific antibody (Jackson Immuno Research Laboratories Inc., West Grove, Pa., USA) and a subsequent enzymatic reaction in the presence of the substrate TMB (3,3′,5,5′-tetramentylbenzidine) (Pierce, Rockford, Ill., USA).

The target in assay [7] is T1, recombinant human VEGF165. The assay is described as follows: binding ELISA, coated rhVEGF165.
Target sequence in this assay (P15692 other isoform, or with tags, fused parts or gaps limits assumed): as the sequence (P15692 other isoform, or with tags, fused parts or gaps limits assumed) above
Assay [8] addresses T1, recombinant human VEGF165. Nature of the assay: hVEGF165/hVEGFR2-Fc competition ELISA.
The target of the next assay is T3, human VEGF-D (human, UniProt O43915 93-201).
T3 construct: also called hVEGF-D
T3 sequence (looked up): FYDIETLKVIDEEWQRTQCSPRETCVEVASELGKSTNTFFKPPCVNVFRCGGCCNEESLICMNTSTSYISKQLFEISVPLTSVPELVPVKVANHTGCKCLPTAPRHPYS
Nature of the assay: binding ELISA on coated VEGF D. On the procedure:
as §4

Another assay addresses T4, human PIGF (human, UniProt P49763-2 21-149, limits assumed).
T4 construct: also called hPIGF; PLGF
T4 sequence (looked up): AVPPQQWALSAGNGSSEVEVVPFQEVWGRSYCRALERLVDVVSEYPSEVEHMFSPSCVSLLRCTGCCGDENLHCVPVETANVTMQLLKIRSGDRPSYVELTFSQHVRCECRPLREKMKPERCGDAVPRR
Nature of the assay: binding ELISA on coated PIGF. On the procedure:
as §4

The next assay addresses T5, human VEGF-B (human, UniProt P49765-2 22-188, limits assumed).
T5 construct: also called hVEGF-B
T5 sequence (looked up): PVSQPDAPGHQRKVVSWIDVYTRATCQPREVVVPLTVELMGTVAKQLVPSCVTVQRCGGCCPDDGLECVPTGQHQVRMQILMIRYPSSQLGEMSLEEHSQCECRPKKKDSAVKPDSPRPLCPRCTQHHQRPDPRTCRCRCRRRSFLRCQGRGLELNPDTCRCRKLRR
Nature of the assay: binding ELISA on coated VEGFB. On the procedure:
as §4

Assay [9] addresses T1, recombinant human VEGF165. Nature of the assay: SPR Biacore T100, Two State Reaction model; KD = kd1/ka1 * (kd2/(kd2 + ka2)). On the procedure: as §1, §2
In assay [10] the target is VEGF. The assay is described as follows: cell-based or functional assay.
For assay [11], the target named is T1, recombinant human VEGF165. Nature of the assay: ka1; SPR Biacore T100, hVEGF165 on chip, Two State Reaction model. On the procedure:
as §1, §2

Assay [12] deals with T1, recombinant human VEGF165. The assay is described as follows: VEGF165/hVEGFR1-Fc competition ELISA.
Assay [13] concerns the target T6, recombinant mouse VEGF164 (mouse, UniProt Q00731-2 27-190).
T6 construct: biotinylated in the mVEGFR2 AlphaScreen; also called rmVEGF164; mVEGF164
T6 sequence (looked up): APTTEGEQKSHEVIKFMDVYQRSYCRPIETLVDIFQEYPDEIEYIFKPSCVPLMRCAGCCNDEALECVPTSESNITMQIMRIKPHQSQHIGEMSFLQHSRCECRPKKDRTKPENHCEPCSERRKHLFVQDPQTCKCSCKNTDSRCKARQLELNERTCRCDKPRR
Nature of the assay: binding ELISA on coated mouse VEGF164. On the procedure:
Cross-reactivity to mouse VEGF164 is determined using a binding ELISA. […] Wells are blocked with a casein solution (1% in PBS). […] A mouse VEGF164 reactive mAb is included as positive control.

Assay [14] addresses VEGF. Nature of the assay: cell-based or functional assay. The source holds these as a separate data set.
The target in assay [15] is T7, recombinant human VEGF121 (human, UniProt P15692-9 27-147).
T7 construct: also called rhVEGF121; hVEGF121
T7 sequence (looked up): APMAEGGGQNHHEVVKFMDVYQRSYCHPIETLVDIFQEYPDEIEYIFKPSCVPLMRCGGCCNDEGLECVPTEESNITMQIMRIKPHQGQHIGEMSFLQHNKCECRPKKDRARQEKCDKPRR
Nature of the assay: binding ELISA, coated rhVEGF121. On the procedure:
Binding to recombinant human VEGF121 is assessed via a solid phase binding ELISA. Briefly, recombinant human VEGF121 (R&D Systems, Minneapolis, Minn., USA) is coated overnight at 4° C. at 1 μg/mL in a 96-well MaxiSorp plate (Nunc, Wiesbaden, Germany). Wells are blocked with a casein solution (1% in PBS).

The target of another assay is T8, hAng2.
T8 construct: also called human Ang2
T8 chain: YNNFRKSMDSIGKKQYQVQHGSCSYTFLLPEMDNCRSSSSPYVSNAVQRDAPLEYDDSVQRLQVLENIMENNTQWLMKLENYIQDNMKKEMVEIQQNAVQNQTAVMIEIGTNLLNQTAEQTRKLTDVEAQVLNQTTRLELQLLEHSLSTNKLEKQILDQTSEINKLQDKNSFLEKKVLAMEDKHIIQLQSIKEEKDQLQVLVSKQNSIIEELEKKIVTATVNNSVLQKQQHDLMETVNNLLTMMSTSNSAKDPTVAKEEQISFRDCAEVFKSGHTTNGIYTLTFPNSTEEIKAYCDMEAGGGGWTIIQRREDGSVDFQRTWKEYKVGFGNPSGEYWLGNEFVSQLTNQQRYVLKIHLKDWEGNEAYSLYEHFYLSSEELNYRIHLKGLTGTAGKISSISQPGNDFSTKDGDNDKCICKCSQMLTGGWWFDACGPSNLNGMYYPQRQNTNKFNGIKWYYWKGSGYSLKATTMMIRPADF
The assay is described as follows: competition ELISA, blocking of hAng2 binding to hTie2.

The target in another assay is T9, mAng2.
T9 construct: also called mouse Ang2
T9 chain: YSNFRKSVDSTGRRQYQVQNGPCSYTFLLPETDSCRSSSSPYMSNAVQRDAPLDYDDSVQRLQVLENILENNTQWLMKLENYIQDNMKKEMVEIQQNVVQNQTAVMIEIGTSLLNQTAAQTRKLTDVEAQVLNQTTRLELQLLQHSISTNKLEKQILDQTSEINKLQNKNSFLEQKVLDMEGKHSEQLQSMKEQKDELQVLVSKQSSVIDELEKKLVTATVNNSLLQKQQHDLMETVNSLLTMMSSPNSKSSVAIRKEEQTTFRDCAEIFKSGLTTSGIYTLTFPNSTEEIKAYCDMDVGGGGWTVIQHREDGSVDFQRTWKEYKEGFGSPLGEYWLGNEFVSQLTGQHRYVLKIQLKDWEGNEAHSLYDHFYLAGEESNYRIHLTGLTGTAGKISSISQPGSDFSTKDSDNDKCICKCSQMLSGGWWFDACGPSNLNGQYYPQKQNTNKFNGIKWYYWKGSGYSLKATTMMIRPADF
Nature of the assay: competition ELISA, blocking of mAng2 binding to mTie2.

Assay [16] deals with T1, recombinant human VEGF165. The assay is described as follows: VEGF165/VEGFR2 blocking AlphaScreen.
Assay [17] concerns the target VEGF. Nature of the assay: cell-based or functional assay. The source holds these as a separate data set.
The target of assay [18] is T1, recombinant human VEGF165. Nature of the assay: Biacore on VEGF165 (Example 5.5). On the procedure: as §1

Where two headings read alike, the source gives them in different places.

B1: VEGFBII024 (VHH)
chain: EVQLVESGGGLVQTGDSLRLSCEVSGRTFSSYSMGWFRQAQGKEREFVVAISKGGYKYDSVSLEGRFTISKDNAKNTVYLQINSLKPEDTAVYYCASSRAYGSSRLRLADTYEYWGQGTQVTVSSGGGGSGGGGSGGGGSGGGGSGGGGSGGGGSGGGGSGGGGSEVQLVESGGGLVQAGGSLRLSCTASGSAFKSYRMGWFRRTPGKEDEFVASISWTYGSTFYADSVKGRFTMSRDKAKNAGYLQMNSLKPEDTALYYCAAGAQSDRYNIRSYDYWGQGTQVTVSS
notes: biparatopic bivalent VHH in one chain; also called VEGFBII23B04-40GS-86H09; VEGFBI024
Turning to B1, in assay [1], the ka2 was determined as 0.026 s⁻¹. The kd2 in assay [1] came to 0.00028 s⁻¹. In addition, the koff in assay [2] turned out to be 0.013 s⁻¹. Moreover, the IC50 in [3] came out at 0.012 nM; in [4] it was 0.05 nM; in assay [5], 0.069 nM; in [6], 0.046 nM; in [8] it was 0.292 nM; in [12], 0.326 nM. The “% inhibition” value in [4] worked out at 100%; in [5] it was 98%; in assay [6] it was 100%; in [8], 100%; in [12], 92%. The binding result in the assay with human VEGF-C is given as “no binding (tested: 5e-7 M)”; in the assay with human VEGF-D, “no binding (tested: 5e-7 M)”; in the assay with human PIGF, “no binding (tested: 5e-7 M)”; with human VEGF-B, “no binding (tested: 5e-7 M)”; in assay [13], “binds”. In addition, the concentration giving a half-maximal response (EC50) in assay [7] turned out to be 0.32 nM; in assay [15], 0.325 nM. Besides, the Kd in [9] came out at 0.47 nM. For the same molecule, the “% inhibition, VEGF HUVEC proliferation assay” value with VEGF [10] is 96%. The “IC50 (nM), VEGF HUVEC proliferation assay” value with VEGF [10] came to 0.38 nM. Also, in assay [11], the kon worked out at 300000 M⁻¹ s⁻¹. For the same molecule, the “% inhibition, VEGF HUVEC Erk phosphorylation assay” value with VEGF [14] is 94%. Moreover, the “IC50 (nM), VEGF HUVEC Erk phosphorylation assay” value with VEGF [14] is 0.23 nM.

B2: ANGBII00002 (VHH)
bivalent VHH: EVQLVESGGGLVQAGGSLRLSCAASGFTFDDYALGWFRQAAGKEREGVSCIRCSDGSTYYADSVKGRFTISSDNAKNTVYLQMNSLKPEDTAVYYCAASIVPRSKLEPYEYDAWGQGTLVTVSSGGGGSGGGGSGGGGSGGGGSGGGGSGGGGSGGGGSGGGGSEVQLVESGGGLVQAGGSLRLSCAASGFTFDDYALGWFRQAAGKEREGVSCIRCSDGSTYYADSVKGRFTISSDNAKNTVYLQMNSLKPEDTAVYYCAASIVPRSKLEPYEYDAWGQGTLVTVSS
notes: homodimeric anti-Ang2 VHH; also called 1D01-40gs-1D01
Regarding B2, the “IC50 (read off the curve)” value with hAng2 was roughly 0.02 nM; with mAng2, roughly 0.03 nM.

B3: VEGFBII037 (VHH)
VHH: DVQLVESGGGLVQPGGSLRLSCAASGRTFSSYSMGWFRQAPGKEREFVVAISKGGYKYDAVSLEGRFTISRDNAKNTVYLQMNSLRPEDTAVYYCASSRAYGSSRLRLADTYEYWGQGTLVTVSS
notes: also called VEGFBII0037
In the case of B3, in [16], the “% inhibition” value was determined as 100% and the IC50 was determined as 0.3 nM. In addition, in the assay with VEGF [17], the “% inhibition, VEGF HUVEC proliferation assay” value was 78% and the “IC50 (nM), VEGF HUVEC proliferation assay” value is 1.54 nM. The Kd in assay [18] stood at 0.27 nM.
